This is an account of results in patent US8110672B2, “Promoter engineering and genetic control” (priority 2005, dated 2012).

One data set relates to CAT. Put plainly: Chloramphenicol resistance of pZE-promoter-cat constructs (MIC on LB agar). It is filed as cell-based, E. coli. The following applies: lowest chloramphenicol concentration that inhibited growth; promoter driving cat, LB agar with kanamycin, overnight 37° C. The protocol: pZE-promoter-cat plasmids were created by PCR of the CAT gene from pACYC184 using primers CAT_Sense_MluI: […] (SEQ ID NO: 6) and CAT_Anti_KpnI: […] (SEQ ID NO: 7) and ligated into the proper pZE-promoter construct which was previously digested by KpnI and MluI. Exponential-phase cultures grown in LB supplemented with kanamycin were plated onto LB agar supplemented with kanamycin and various concentrations of chloramphenicol ranging from 0 to 500 μg/ml. After overnight incubation at 37° C., the lowest concentration of chloramphenicol that inhibited the growth of a clone was recorded.
To verify the constitutive nature of all the promoters, each was redeployed into a new construct driving the reporter gene cat. Cultures bearing these constructs were assayed for resistance to chloramphenicol on a rich, solid-phase medium. […] Moreover, these conditions test the promoter library in contrasting medium and growth environments (liquid minimal medium vs. solid complex medium) further underscoring the constitutive nature of the library promoters.

Another data set concerns gfp transcript. Put plainly: Transcriptional analysis: quantitative RT-PCR of the gfp transcript. The data set is classed as cell-based, E. coli. Particulars: cultures grown 3 hours, relative level. The protocol: Cultures inoculated as previously were grown for 3 hours and the total RNA was extracted from a 1.5 mL sample with a commercial kit (RNEasy, Qiagen Corp). All samples were diluted to a final concentration of 20 μg/mL and stored at −20° C. A commercial kit for RT-PCR (iScript One-Step RT-PCR Kit with SYBR Green, Bio-Rad) was used with a CCD-equipped thermal cycler (iCycler, Bio-Rad) for RT-PCR of the gfp transcript. Primers (sense-[…] (SEQ ID NO: 4) and antisense-[…] (SEQ ID NO: 5)) were used at a final concentration of 100 nM and 20 ng of RNA was used as template in each 50 μL reaction. We performed duplicate cultures for each clone and duplicate extractions for each culture. The threshold cycles for each sample were calculated from the fluorescence data with proprietary software (Bio-Rad, Inc).
To characterize the promoter library directly at the transcriptional level, the relative mRNA levels of gfp transcripts in the above cultures were determined by quantitative RT-PCR. The high correlation between fluorescence and mRNA level (FIG. 4) confirmed that expression was transcriptionally controlled. The data was obtained where GFP fluorescence levels were modulated by the level of oxygen. In this way, selection for promoters, which had differential expression in high and low oxygen conditions was accomplished.

B1: PLTetO1: PLteto-1 promoter, sequence SEQ ID NO: 34, relative to which the mutated promoters are defined (nucleic acid)
DNA: CAATTCCGACGTCTAAGAAACCATTATTATCATGACATTAACCTATAAAAATAGGCGTATCACGAGGCCCTTTCGTCTTCACCTCGAGTCCCTATCAGTGATAGAGATTGACATCCCTATCAGTGATAGAGATACTGAGCACATCAGCAGGACGCACTGACC
modifications: mutant sequence of bacteriophage lambda tetO promoter
For the molecule B1, the “Promoter Strength” value in the data set on gfp (P from Equation 1, pZE-promoter-gfp(ASV) plasmid, M9G/CAA medium, exponential phase, duplicate cultures) is 145,806.85 relative fluorescence units per absorbance unit per hour. For the same molecule, in the data set on gfp (average of the scaled mRNA and fluorescence data), the “Average Promoter Metric” value is reported as 0.8685. In the data set with CAT, the “Cm MIC” value was determined as 338 mg/L. Besides, the “Relative mRNA” value with gfp transcript stood at 1.
